Square brackets hold non-standard residues; d marks the D form. Peptide text beside a SMILES is read from it. * marks the point of attachment. X3 = O=C(CCCCCNCc1nc2c(sc3cc(Br)cnc32)c(=O)[nH]1)*
Columns and labels:
Experiment in all cases: Kinase profiling (radiometric filter-binding)
Assay type in all cases: biochemical
ERK1 = ERK1 (Homo sapiens, UniProt P27361); details: ERK1, 1 µM inhibitor; read-out: Residual activity, %
How it was run: (§1)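 A 1 µM final dose of each inhibitor was profiled on human protein kinases; ATP was kept at or beneath the KM of every enzyme, and radiometric filter binding measured turnover, expressed as % of the inhibitor-free reaction.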

MKK2 = MKK2 (Homo sapiens, UniProt P36507); details: MKK2, 1 µM inhibitor; read-out: Residual activity, %
How it was run: as §1

SGK1 = target: T1, SGK1 (Homo sapiens, UniProt O00141); details: SGK1, 1 µM inhibitor; read-out: Residual activity, %
T1 sequence (O00141 1-431): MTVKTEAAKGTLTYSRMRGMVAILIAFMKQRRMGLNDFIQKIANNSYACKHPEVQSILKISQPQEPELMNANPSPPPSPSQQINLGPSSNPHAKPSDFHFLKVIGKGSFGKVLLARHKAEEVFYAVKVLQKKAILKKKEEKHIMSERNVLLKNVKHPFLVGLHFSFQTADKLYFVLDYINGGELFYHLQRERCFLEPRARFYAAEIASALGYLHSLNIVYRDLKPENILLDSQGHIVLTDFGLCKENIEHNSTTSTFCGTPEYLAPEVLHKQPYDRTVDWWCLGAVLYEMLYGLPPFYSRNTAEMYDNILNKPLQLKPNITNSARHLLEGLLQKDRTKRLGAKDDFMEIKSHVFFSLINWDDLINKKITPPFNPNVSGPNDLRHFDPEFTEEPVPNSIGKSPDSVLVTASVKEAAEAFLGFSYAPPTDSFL
How it was run: as §1

PAK4 = PAK4 (Homo sapiens, UniProt O96013); details: PAK4, 1 µM inhibitor; read-out: Residual activity, %
How it was run: as §1

MPSK1 = MPSK1 (Homo sapiens, UniProt O75716); details: MPSK1, 1 µM inhibitor; read-out: Residual activity, %
How it was run: as §1

SmMLCK = SmMLCK (Homo sapiens, UniProt Q15746); details: 1 µM inhibitor, read-out: Residual activity, %
How it was run: as §1

NEK6 = NEK6 (Homo sapiens, UniProt Q9HC98); details: NEK6, 1 µM inhibitor; read-out: Residual activity, %
How it was run: as §1

CK1γ2 = CK1γ2 (Homo sapiens, UniProt P78368); details: CK1γ2, 1 µM inhibitor; read-out: Residual activity, %
How it was run: as §1

Aurora A = target: T2, Aurora A (Homo sapiens, UniProt O14965); details: 1 µM inhibitor, read-out: Residual activity, %
T2 sequence (O14965 1-403): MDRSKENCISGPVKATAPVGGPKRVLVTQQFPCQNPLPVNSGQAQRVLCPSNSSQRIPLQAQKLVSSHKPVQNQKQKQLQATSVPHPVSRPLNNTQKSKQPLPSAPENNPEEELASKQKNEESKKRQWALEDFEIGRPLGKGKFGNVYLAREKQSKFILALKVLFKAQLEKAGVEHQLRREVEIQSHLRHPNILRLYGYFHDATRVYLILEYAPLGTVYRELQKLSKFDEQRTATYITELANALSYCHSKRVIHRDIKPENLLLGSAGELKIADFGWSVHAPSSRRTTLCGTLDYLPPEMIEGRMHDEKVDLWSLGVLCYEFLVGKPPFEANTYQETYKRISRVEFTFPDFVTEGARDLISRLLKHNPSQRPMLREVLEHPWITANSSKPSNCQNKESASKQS
How it was run: as §1

FGF-R1 = FGF-R1 (Homo sapiens, UniProt P11362); details: FGF-R1, 1 µM inhibitor; read-out: Residual activity, %
How it was run: as §1

TIE2 = TIE2 (Homo sapiens, UniProt Q02763); details: TIE2, 1 µM inhibitor; read-out: Residual activity, %
How it was run: as §1

IKK = target: T3, IKK (Homo sapiens, UniProt O14920); details: first of two IKK lines (Greek letter lost), 1 µM inhibitor, read-out: Residual activity, %
T3 sequence (O14920 1-756): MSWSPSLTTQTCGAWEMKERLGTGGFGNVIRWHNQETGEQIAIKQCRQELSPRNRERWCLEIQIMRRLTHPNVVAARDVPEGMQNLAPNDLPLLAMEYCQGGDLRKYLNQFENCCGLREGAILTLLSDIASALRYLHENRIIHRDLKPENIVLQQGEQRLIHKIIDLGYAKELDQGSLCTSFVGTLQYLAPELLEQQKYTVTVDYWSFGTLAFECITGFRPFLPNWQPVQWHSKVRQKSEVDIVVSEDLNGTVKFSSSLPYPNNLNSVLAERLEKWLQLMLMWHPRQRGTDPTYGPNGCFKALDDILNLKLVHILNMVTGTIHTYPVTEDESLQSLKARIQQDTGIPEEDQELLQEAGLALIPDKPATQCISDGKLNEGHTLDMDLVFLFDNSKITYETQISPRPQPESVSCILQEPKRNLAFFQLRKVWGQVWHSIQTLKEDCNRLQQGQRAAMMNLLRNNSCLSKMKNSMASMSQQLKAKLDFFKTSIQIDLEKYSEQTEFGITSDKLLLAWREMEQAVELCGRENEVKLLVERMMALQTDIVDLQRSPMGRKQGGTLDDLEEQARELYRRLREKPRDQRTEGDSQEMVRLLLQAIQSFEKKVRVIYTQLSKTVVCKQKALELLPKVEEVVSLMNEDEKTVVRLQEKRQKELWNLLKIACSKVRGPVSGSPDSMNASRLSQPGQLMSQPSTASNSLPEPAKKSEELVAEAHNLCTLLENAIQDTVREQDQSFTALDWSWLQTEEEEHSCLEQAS
How it was run: as §1

CDK2-Cyclin A = CDK2-Cyclin A (Homo sapiens, UniProt P24941); details: 1 µM inhibitor, read-out: Residual activity, %
How it was run: as §1

Sequence of MPSK1 (O75716 whole entry): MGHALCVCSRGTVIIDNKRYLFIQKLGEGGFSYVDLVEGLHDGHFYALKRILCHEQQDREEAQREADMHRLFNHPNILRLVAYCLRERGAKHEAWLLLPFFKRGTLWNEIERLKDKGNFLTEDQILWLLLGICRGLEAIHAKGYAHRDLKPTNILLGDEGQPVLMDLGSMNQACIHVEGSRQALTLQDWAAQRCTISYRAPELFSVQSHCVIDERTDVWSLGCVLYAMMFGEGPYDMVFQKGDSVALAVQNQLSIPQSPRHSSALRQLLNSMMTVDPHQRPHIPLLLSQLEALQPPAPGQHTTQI
Sequence of TIE2 (Q02763 23-1124): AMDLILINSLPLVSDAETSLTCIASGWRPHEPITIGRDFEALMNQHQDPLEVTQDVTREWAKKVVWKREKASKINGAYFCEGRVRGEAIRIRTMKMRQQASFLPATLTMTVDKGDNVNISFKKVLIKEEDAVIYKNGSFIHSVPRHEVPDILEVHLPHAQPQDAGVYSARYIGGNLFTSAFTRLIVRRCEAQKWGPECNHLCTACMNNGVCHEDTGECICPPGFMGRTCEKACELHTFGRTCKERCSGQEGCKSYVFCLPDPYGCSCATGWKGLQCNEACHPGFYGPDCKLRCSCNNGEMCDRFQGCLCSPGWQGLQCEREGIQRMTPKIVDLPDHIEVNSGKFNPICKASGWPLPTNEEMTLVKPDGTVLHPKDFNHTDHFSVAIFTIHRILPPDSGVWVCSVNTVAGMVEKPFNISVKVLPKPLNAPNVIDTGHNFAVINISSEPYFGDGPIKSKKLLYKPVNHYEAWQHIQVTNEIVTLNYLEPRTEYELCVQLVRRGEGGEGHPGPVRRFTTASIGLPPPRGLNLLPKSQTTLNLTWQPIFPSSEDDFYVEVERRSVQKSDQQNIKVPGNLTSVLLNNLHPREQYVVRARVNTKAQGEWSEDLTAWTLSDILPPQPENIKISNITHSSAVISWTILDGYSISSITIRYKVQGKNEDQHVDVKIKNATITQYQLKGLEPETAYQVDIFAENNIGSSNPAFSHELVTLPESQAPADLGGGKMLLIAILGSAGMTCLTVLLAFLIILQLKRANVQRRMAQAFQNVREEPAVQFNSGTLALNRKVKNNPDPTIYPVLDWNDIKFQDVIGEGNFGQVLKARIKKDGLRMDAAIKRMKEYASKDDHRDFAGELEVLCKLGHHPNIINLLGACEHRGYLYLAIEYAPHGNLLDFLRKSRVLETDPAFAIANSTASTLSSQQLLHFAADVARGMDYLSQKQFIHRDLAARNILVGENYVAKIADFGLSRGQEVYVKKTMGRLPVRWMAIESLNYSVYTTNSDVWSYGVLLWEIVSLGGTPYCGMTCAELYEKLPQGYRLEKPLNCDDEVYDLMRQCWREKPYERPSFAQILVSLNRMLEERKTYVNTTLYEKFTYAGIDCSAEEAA
Sequence of ERK1 (P27361 whole entry): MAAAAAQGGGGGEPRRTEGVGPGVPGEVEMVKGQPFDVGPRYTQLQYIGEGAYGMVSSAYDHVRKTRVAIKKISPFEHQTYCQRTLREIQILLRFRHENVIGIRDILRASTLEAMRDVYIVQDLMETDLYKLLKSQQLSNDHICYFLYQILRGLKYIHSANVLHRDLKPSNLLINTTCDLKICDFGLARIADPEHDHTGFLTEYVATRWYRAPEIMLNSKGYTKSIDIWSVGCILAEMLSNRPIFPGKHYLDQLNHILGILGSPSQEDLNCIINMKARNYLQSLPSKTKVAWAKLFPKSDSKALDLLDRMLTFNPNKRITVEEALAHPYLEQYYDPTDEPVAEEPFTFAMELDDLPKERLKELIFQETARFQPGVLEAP
Sequence of NEK6 (Q9HC98 whole entry): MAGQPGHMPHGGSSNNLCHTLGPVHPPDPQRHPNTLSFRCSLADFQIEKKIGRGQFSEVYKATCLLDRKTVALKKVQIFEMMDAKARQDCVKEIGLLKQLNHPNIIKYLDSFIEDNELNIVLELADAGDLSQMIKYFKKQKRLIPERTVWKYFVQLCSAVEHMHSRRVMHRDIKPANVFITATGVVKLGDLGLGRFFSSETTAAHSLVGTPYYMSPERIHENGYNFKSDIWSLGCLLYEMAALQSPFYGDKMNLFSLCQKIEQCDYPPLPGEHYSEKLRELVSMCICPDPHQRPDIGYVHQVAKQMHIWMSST
Sequence of PAK4 (O96013 whole entry): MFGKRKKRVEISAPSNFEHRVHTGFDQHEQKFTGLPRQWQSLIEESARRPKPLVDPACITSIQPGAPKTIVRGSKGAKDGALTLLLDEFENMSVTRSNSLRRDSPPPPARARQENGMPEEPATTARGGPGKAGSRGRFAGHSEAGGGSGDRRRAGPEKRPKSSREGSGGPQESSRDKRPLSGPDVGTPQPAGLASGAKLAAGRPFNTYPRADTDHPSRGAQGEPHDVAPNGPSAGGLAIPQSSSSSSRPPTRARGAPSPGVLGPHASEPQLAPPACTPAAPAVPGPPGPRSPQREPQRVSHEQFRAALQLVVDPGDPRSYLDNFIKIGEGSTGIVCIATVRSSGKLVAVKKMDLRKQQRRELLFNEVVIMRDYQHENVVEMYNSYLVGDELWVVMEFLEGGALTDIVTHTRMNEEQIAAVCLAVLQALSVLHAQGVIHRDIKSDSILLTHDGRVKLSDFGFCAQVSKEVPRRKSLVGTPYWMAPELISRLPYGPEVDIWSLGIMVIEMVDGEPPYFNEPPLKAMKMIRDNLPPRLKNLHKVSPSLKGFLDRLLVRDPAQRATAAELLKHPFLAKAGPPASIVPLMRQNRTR
Sequence of CK1γ2 (P78368 whole entry): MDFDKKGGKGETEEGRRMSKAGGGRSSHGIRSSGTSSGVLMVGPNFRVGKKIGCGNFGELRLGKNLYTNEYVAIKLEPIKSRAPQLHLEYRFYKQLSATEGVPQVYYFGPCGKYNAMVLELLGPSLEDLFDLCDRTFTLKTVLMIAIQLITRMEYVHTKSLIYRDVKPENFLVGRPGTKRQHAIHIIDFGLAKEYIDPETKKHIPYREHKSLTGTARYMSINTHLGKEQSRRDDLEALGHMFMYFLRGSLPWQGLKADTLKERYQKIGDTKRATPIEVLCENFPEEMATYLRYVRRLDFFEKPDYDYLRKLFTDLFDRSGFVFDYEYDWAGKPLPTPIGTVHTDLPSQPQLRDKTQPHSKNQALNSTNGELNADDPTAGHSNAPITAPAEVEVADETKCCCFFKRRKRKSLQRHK
Sequence of MKK2 (P36507 whole entry): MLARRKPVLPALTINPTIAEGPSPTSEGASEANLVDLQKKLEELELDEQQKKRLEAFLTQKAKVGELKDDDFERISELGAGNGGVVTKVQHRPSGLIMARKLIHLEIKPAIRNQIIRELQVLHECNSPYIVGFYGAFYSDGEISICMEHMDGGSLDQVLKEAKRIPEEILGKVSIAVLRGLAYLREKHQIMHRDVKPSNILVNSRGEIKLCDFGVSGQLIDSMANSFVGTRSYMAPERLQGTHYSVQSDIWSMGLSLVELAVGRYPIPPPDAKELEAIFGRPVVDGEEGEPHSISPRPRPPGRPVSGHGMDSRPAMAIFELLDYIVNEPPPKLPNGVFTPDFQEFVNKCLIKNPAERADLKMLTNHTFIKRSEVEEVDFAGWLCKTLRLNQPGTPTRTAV
Sequence of FGF-R1 (P11362 22-822): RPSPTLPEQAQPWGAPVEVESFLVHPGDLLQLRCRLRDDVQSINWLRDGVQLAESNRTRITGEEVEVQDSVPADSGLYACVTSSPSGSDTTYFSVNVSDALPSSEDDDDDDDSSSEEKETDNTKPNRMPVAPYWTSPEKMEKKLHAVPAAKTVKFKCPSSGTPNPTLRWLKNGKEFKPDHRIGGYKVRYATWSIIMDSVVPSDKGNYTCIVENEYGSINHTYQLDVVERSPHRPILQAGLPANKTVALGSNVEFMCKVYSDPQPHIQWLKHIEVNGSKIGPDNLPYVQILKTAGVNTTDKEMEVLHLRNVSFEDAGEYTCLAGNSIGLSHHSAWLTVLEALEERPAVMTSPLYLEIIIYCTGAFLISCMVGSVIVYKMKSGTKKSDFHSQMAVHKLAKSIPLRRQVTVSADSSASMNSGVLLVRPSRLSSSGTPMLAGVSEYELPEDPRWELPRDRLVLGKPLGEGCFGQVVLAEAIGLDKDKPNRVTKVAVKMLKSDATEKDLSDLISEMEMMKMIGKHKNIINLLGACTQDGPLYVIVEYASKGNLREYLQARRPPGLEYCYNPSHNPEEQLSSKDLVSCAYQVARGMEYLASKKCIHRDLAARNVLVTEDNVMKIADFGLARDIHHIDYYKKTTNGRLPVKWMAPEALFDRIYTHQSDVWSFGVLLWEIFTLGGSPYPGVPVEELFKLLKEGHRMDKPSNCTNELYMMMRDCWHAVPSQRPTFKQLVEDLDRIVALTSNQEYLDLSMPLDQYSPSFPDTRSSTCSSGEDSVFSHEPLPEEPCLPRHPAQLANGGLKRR

## N=C(N)NCCC[C@@H](NC(=O)CCCCCNC(=O)Cn1cnc2c(I)c(I)c(I)c(I)c21)C(=O)N[C@H](CCCNC(=N)N)C(=O)N[C@H](CCCNC(=N)N)C(=O)N[C@H](CCCNC(=N)N)C(=O)N[C@H](CCCNC(=N)N)C(=O)N[C@H](CCCNC(=N)N)C(=O)N[C@H](CCCCN)C(N)=O [ARC-3125, TIBI-CH2-C(=O)-Ahx-(D-Arg)6-D-Lys-NH2]
ERK1
  remaining activity at 1 µM: 89 ± 7%
MKK2
  remaining activity at 1 µM: 68 ± 5%
SGK1
  remaining activity at 1 µM: 9 ± 5%
PAK4
  remaining activity at 1 µM: 50 ± 2%
MPSK1
  remaining activity at 1 µM: 75 ± 3%
SmMLCK
  remaining activity at 1 µM: 66 ± 1%
NEK6
  remaining activity at 1 µM: 97%
CK1γ2
  remaining activity at 1 µM: 45 ± 5%
Aurora A
  remaining activity at 1 µM: 84 ± 1%
FGF-R1
  remaining activity at 1 µM: 100 ± 19%
TIE2
  remaining activity at 1 µM: 104 ± 9%
IKK
  remaining activity at 1 µM: 80 ± 1%
CDK2-Cyclin A
  remaining activity at 1 µM: 17 ± 1%

## N=C(N)NCCC[C@@H](NC(=O)CCCCCNCc1nc2c(sc3cc(Br)cnc32)c(=O)[nH]1)C(=O)N[C@H](CCCNC(=N)N)C(=O)N[C@H](CCCNC(=N)N)C(=O)N[C@H](CCCNC(=N)N)C(=O)N[C@H](CCCNC(=N)N)C(=O)N[C@H](CCCNC(=N)N)C(=O)N[C@H](CCCCN)C(N)=O [ARC-3126, BPTP-Ahx-(D-Arg)6-D-Lys-NH2] (X3-[dR][dR][dR][dR][dR][dR][dK]-NH2)
ERK1
  remaining activity at 1 µM: 84 ± 7%
MKK2
  remaining activity at 1 µM: 117 ± 14%
SGK1
  remaining activity at 1 µM: 75 ± 9%
PAK4
  remaining activity at 1 µM: 71 ± 42%
MPSK1
  remaining activity at 1 µM: 79 ± 11%
SmMLCK
  remaining activity at 1 µM: 116 ± 39%
NEK6
  remaining activity at 1 µM: 85 ± 17%
CK1γ2
  remaining activity at 1 µM: 66 ± 10%
Aurora A
  remaining activity at 1 µM: 132 ± 8%
FGF-R1
  remaining activity at 1 µM: 102 ± 3%
TIE2
  remaining activity at 1 µM: 106%
IKK
  remaining activity at 1 µM: 104 ± 2%
CDK2-Cyclin A
  remaining activity at 1 µM: 106 ± 5%

## N=C(N)NCCC[C@@H](NC(=O)CNC(=O)[C@@H](CCCNC(=N)N)NC(=O)[C@@H](CCCNC(=N)N)NC(=O)CCCCCCCNCc1nc2c(sc3cc(Br)cnc32)c(=O)[nH]1)C(=O)N[C@H](CCCCN)C(N)=O [Compound 1, BPTP-Aoc-(D-Arg)2-Gly-D-Arg-D-Lys-NH2]
ERK1
  remaining activity at 1 µM: 119 ± 16%
MKK2
  remaining activity at 1 µM: 102 ± 5%
SGK1
  remaining activity at 1 µM: 110 ± 19%
PAK4
  remaining activity at 1 µM: 91%
MPSK1
  remaining activity at 1 µM: 113 ± 21%
SmMLCK
  remaining activity at 1 µM: 98 ± 5%
NEK6
  remaining activity at 1 µM: 107 ± 11%
CK1γ2
  remaining activity at 1 µM: 117 ± 3%
Aurora A
  remaining activity at 1 µM: 99 ± 6%
FGF-R1
  remaining activity at 1 µM: 142 ± 8%
TIE2
  remaining activity at 1 µM: 110 ± 6%
IKK
  remaining activity at 1 µM: 97%
CDK2-Cyclin A
  remaining activity at 1 µM: 106 ± 12%

## N=C(N)NCCC[C@@H](NC(=O)CNC(=O)[C@@H](CCCNC(=N)N)NC(=O)[C@@H](CCCNC(=N)N)NC(=O)CCCCCCCNCc1nc2c(sc3ccc(Br)cc32)c(=O)[nH]1)C(=O)N[C@H](CCCCN)C(N)=O [Compound 2, BBTP-Aoc-(D-Arg)2-Gly-D-Arg-D-Lys-NH2]
ERK1
  remaining activity at 1 µM: 125 ± 6%
MKK2
  remaining activity at 1 µM: 108 ± 11%
SGK1
  remaining activity at 1 µM: 89 ± 3%
PAK4
  remaining activity at 1 µM: 98 ± 14%
MPSK1
  remaining activity at 1 µM: 113 ± 15%
SmMLCK
  remaining activity at 1 µM: 98 ± 9%
NEK6
  remaining activity at 1 µM: 126 ± 5%
CK1γ2
  remaining activity at 1 µM: 116 ± 10%
Aurora A
  remaining activity at 1 µM: 106 ± 3%
FGF-R1
  remaining activity at 1 µM: 126 ± 10%
TIE2
  remaining activity at 1 µM: 109 ± 9%
IKK
  remaining activity at 1 µM: 100 ± 11%
CDK2-Cyclin A
  remaining activity at 1 µM: 105 ± 9%

## N=C(N)NCCC[C@@H](NC(=O)CNC(=O)[C@@H](CCCNC(=N)N)NC(=O)[C@@H](CCCNC(=N)N)NC(=O)Cn1cc(CNCc2nc3c(sc4ccc(Br)cc43)c(=O)[nH]2)nn1)C(=O)N[C@H](CCCCN)C(N)=O [Compound 3, BBTP-Amt-(D-Arg)2-Gly-D-Arg-D-Lys-NH2]
ERK1
  remaining activity at 1 µM: 107 ± 6%
MKK2
  remaining activity at 1 µM: 96 ± 7%
SGK1
  remaining activity at 1 µM: 95 ± 4%
PAK4
  remaining activity at 1 µM: 77 ± 13%
MPSK1
  remaining activity at 1 µM: 110 ± 2%
SmMLCK
  remaining activity at 1 µM: 94%
NEK6
  remaining activity at 1 µM: 117 ± 23%
CK1γ2
  remaining activity at 1 µM: 88 ± 1%
Aurora A
  remaining activity at 1 µM: 97 ± 3%
FGF-R1
  remaining activity at 1 µM: 110 ± 2%
TIE2
  remaining activity at 1 µM: 103 ± 12%
IKK
  remaining activity at 1 µM: 90 ± 6%
CDK2-Cyclin A
  remaining activity at 1 µM: 100%

Reference: article PMC8307404, “Crystal Structure-Guided Design of Bisubstrate Inhibitors and Photoluminescent Probes for Protein Kinases of the PIM Family” (Molecules, 2021)
